From the supplement of paper PMC12042874
± gives the uncertainty stated by the source.

Assay: amyloid nucleation score (Sup35N fusion, yeast selection) (log enrichment); library NNK3; higher = more nucleation; inactive = no reads after selection
How it was run: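 Peptides of 20 random codons, each fused to Sup35N, were expressed in psi-negative yeast. Cells were induced with 100 μM copper sulfate for 24 hours and grown 7 days at 30°C on medium lacking adenine and uracil, and plasmid inserts before and after selection were Illumina-sequenced. Nucleation scores are DiMSum log enrichments of output over input reads, centred on the mode score of non-aggregating sequences, and sequences under 100 input reads were excluded.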

Amyloid nucleation score, 1.49 ± 0.13:
AFVRMLW

Amyloid nucleation score, 0.604 ± 0.24:
ALCCVRPFGNEDKREVMYSN

Amyloid nucleation score, 1.46 ± 0.09:
CCFNMW

Amyloid nucleation score, 2.44 ± 0.058:
ANSWSMLHVECFYML

Amyloid nucleation score, 1.74 ± 0.1:
AGFRKTMWCIQPVSFLLLKF

Amyloid nucleation score, -0.481 ± 1.4:
ATEDPKLESGCVAEIVPFRG

Amyloid nucleation score, 1.54 ± 0.071:
ANCSWWSWESMNCCYIGWIF

Amyloid nucleation score, 0.197 ± 1:
ADCGHLTYLSSNSRSLGRRK

Amyloid nucleation score, 0.947 ± 0.13:
AEGLCCMANLWSCAGSRTYT

Amyloid nucleation score, 0.531 ± 0.16:
AVCCCGRNIHMRSCRPGTTL

Amyloid nucleation score, 2.47 ± 0.08:
AQAVHAEVVQFILYFGESPL

Amyloid nucleation score, -0.316 ± 0.51:
AQGVTHLWEARNLWVWVEDQ

Amyloid nucleation score, -0.755 ± 1.9:
AVRVEVLGLWYHLKCCWCFL

Amyloid nucleation score, 1.25 ± 0.15:
ALGIICVGLAFDGSLDLTS

Amyloid nucleation score, 0.213 ± 0.81:
APENKVYVRAQVKTACKFRG

Amyloid nucleation score, -0.134 ± 0.38:
AYNLSLNYDGHSSYWYFHTT

Amyloid nucleation score, -0.027 ± 0.35:
AFLSMSGNLLVVYSGEGGSP

Amyloid nucleation score, 0.638 ± 0.31:
AYGRVTMCIGWKDPYGRCL

Amyloid nucleation score, 0.484 ± 0.12:
CCITFLLSDLAMSYYVRYNR

Amyloid nucleation score, -0.309 ± 1:
CCMLC

Amyloid nucleation score, 2.74 ± 0.072:
CCYATSLYINDDATIIVNLM

Amyloid nucleation score, -0.604 ± 0.88:
AKTSRMNFKNNFMCQGCKWS

Amyloid nucleation score, -0.247 ± 1.3:
AWAVEATRFILLRWGQGTWD

Amyloid nucleation score, 2.89 ± 0.054:
CANCMNNVCVSCGCSLQLTL

Amyloid nucleation score, inactive:
AACHINNICKSLVL
AANLDYSRLLEVLE
AAPCFVKLLHGLVVRVQVVM
AAYAALQMSK
ACFLIYYLR
ACLFCLGDWEGFVSD
ACRGLVDVNNWLSGYGIRIG
ACTLLCFRIAQLEFLWVRVD
ACVRKIIKVGYFYERISIRV
ACVSGIIFLLREQLLKMSGI
ADERRVIR
ADIRFKMRENDMFWSNGWGH
ADWYWFMAMQRNNLL
AESEVDKCLDRGYGAEKTCT
AEWFAKLLASTMGLIFERRW
AFAFYSD
AFKGRLLG
AFLGEEVNSTLLKS
AFQMCATGRRIDTGDVSFVV
AFRGCSSLYS
AFRTFSFLGITS
AFTHVTSVMTVQDSLGLCLL
AFVDAQQVNGLYGWYDSKCD
AFYCVSGIDYVS
AGAVYVTAPLIAREDVVACY
AGGAMGVHRCPLLS
AGNAFVDR
AGVIAWVYSSG
AHFLLCNLA
AHITRGNKSGAVFASCRTWS
AHKIVFELTYTVLS
AHLTSVYVKTPSFEINISNK
AHSRWVSQCDITR
AHWSEYDAKFTKRLV
AICVLRSMKLLYQVWTW
AIIVCDC
AIIVQLIDLLMRPARPVFVE
AIPLYWIEFRVRKLSSLFLQ
AIVCMHYQVVHCVKVSTCCY
AKAEC
AKARMNGEDGARLTSMHSLY
AKMNYKLWRDVA
AKVRLDGSIGEVHFMELVSY
ALDMVLYL
ALIKFLEFKGRSAWSMRFIA
ALIYNATGLTYF
ALLFHLG
ALMRVSSLCHLSGKVCLTLA
ALNFPYSSRVFYFKDSAHAF
ALNWISYREMHIFIAYFADS
ALSNYVFLEVTLQTWVVIEV
ALSYLSVLRSMLSRVVLCYL
ALVCYK
AMCALVSIRP
AMFFYRWRCVGTGSFVMTGV
AMILVRVYGVKRVWAYLLVW
AMKPMKNRSASLVGN
AMLLGFLGCGCKLHACCDY
AMMHNIILFKFVLGYVLMSR
ANGNNSLTATLTNAVD
ANKSCGHVDWDIGESYMARL
ANRKSRVKSEEWAEVNGCWG
ANSWIILHSNHFLQFVGIAS
ANVCGVL
ANVRMS
APDFATIFITRWGDIQTLLV
APFRMLAFGMWEALMAGSNS
APRRHVKGDSHIRWCVRDR
ARLEMVFLPSPIFVNRPGNA
ARLSEAVLGNVSDIGRVCNL
ARQYAIRWMWSVVIDGGEKS
ARYETRMYKFKNTPGVAERR
ARYRHGFTALRND
ASFLVYGP
ASGVATSFGFRLWSCVEDIE
ASLRDAPILYDASE
ASRKVTRVVMHINLRLWYET
ASSLVVVCDAMSEASVLNKG
ATELYLGVICNKMRW
ATGDNNLGIMAMALYT
ATNLSYLNSAQVWLLT
ATYAGSVITGLCEDTLYRNC
AVFGCFWFAMGLSFLYAKSL
AVHFGLYFLMRVITMC
AVIFFYRVISFLRWSFTLPV
AVMLREITNIRTKRSRNAMM
AVNCESSCCECYGTFMDKPV
AVSLTW
AWCKGV
AWMCIHLYICCMILCGRRGW
AWSVIMCFIWNRCKRRSS
AYADHHYRAGLRFPAGEVYW
AYCGACFNLSAYTSKCLELM
AYQCHDDVVWWRCQMASCS
AYRAITGSCVMSEVRGAWRL
AYRRKLISGFIWERFLFRCG
AYRYTHVCDMVLKWAVCCFY
CACIPNFPCKSYHYWRSCNI
CAQARSRFTYQSAHR
CAQTYPIRMYS
CARRNLAVNYKYWFVGEHYI
CAVGISLRPFFMISLQLSYL
CCARGGRVCRQLGLVSYTNV
CCAYFVGLGCVQLTKWFSLL
CCEFC
CCFPVVRKPFG
CCGQIADSFLPKSSRGEVRN
CCIYQHIFYMRTYCIRT
CCSSCVWGRVFRSSAMPPRI
CCVDPLAELLICMTALIASR
CDAAWPVNSPFWYLFLWC
CDFGFRMEEESLQRR
CDFYVNGTGPSETRWNSKEH
CDIRFIYESYVSDNDGVLLH
CDSTPYFLMGSWLG
CDSTSITWGHVLWFYINYWM

Amyloid nucleation score, 0.251 ± 0.81:
ASTLLHYCLLNSGYEWSGQC

Amyloid nucleation score, 1.95 ± 0.068:
ANLIIVSVHFPRITTCYNNP

Amyloid nucleation score, -0.647 ± 0.41:
CAIRDS

Amyloid nucleation score, 0.419 ± 0.23:
AYKMTFWVQNYVFVYSFLFV

Amyloid nucleation score, 1.41 ± 0.073:
AWMVFCPCKMCMCRCYL

Amyloid nucleation score, 2.92 ± 0.055:
AYIDNRSYVCDALKCLW

Amyloid nucleation score, 0.051 ± 0.3:
AVDLNVTLQWVCSRGRRWVF

Amyloid nucleation score, 2.68 ± 0.077:
AYSSQSTCTFCASIFSDSKI

Amyloid nucleation score, 2.96 ± 0.048:
AATYTTYHLESSNVYSFNFW

Amyloid nucleation score, 2.08 ± 0.079:
AGVVHRWGLQCFSLNFECGC

Amyloid nucleation score, 0.199 ± 0.64:
AVLKILFVRPCYVINMSLKY

Amyloid nucleation score, 0.92 ± 0.12:
AHGFLSVFV

Amyloid nucleation score, 0.008 ± 0.48:
AAYADR

Amyloid nucleation score, 0.058 ± 1.1:
ASRPFFRPVRQVSEVLPGQW

Amyloid nucleation score, -0.385 ± 0.96:
ANSSRDMCSLLVLVRGTQ

Amyloid nucleation score, -0.264 ± 0.98:
ACGFSFF

Amyloid nucleation score, 2.06 ± 0.064:
AQFGQTWFANFTSVFYCWSE

Amyloid nucleation score, 1.78 ± 0.11:
ACYFWFNINIEHAR

Amyloid nucleation score, -0.319 ± 0.37:
ARATALAVFCIGTDYGSIES
